Measured values reported in PMC8743172 (Current Research in Structural Biology, 2021).
Where two headings read alike, the source gives them in different places. Square brackets hold non-standard residues; d marks the D form. Primed or numbered codes have the meaning given here. Ends that are not written are not given here. FITC′ = fluorescein isothiocyanate fluorescent label; TAMRA = tetramethylrhodamine fluorescent label; Cy5 = cyanine-5 fluorescent label; pS = N[C@@H](COP(=O)(O)O)C(=O)O

B3: 14-3-3η (natural protein, human, UniProt Q04917 1-246, looked up)
chain: MGDREQLLQRARLAEQAERYDDMASAMKAVTELNEPLSNEDRNLLSVAYKNVVGARRSSWRVISSIEQKTMADGNEKKLEKVKAYREKIEKELETVCNDVLSLLDKFLIKNCNDFQYESKVFYLKMKGDYYRYLAEVASGEKKNSVVEASEAAYKEAFEISKEQMQPTHPIRLGLALNFSVFYYEIQNAPEQACLLAKQAFDDAIAELDTLNEDSYKDSTLIMQLLRDNLTLWTSDQQDEEAGEGN
B5: FITC-labelled 13-mer Amot-p130 peptide (peptide)
peptide: {FITC′}-GHVRSL[pS]ERLMQM
modifications: also: phosphoserine at 175 (S5 or S7)

Legend:
[1] = tested on: apo 14-3-3; settings: ref Andrei et al., 2018; cited from earlier work
[2] = molecular target: T1, 14-3-3σΔC (C-terminally truncated after T231) (human, UniProt P31947 1-231); assay: crystal structure
T1 sequence (looked up): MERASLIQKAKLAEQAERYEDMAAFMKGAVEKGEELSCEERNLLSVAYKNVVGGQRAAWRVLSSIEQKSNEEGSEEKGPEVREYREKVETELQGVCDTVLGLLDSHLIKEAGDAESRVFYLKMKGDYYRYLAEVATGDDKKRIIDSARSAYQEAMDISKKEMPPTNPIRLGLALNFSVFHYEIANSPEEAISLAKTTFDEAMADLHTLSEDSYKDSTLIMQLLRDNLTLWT

[3] = molecular target: T1, 14-3-3σΔC (C-terminally truncated after …); assay: crystal structure; remark: listed apart in the source
[4] = molecular target: T2, Cy5 labelled 13-mer Amot-p130 peptide (also: phosphoserine at 175 (S5 or S7)); assay: MST
T2 peptide: Cy5-GHVRSL[pS]ERLMQM

[5] = molecular target: B5; assay: fluorescence polarisation
[6] = molecular target: B3; assay: fluorescence polarisation
[7] = molecular target: T3, 14-3-3τ (human, UniProt P27348 1-245); assay: fluorescence polarisation
T3 sequence (looked up): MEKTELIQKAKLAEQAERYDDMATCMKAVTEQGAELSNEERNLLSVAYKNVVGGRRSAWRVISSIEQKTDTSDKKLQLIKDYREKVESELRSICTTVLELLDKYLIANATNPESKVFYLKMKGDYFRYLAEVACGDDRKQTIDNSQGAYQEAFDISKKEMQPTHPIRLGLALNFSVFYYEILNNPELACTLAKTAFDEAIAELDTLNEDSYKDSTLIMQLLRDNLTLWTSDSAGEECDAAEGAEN

[8] = molecular target: T4, 14-3-3ζ (human, UniProt P63104 1-245); assay: fluorescence polarisation
T4 sequence (looked up): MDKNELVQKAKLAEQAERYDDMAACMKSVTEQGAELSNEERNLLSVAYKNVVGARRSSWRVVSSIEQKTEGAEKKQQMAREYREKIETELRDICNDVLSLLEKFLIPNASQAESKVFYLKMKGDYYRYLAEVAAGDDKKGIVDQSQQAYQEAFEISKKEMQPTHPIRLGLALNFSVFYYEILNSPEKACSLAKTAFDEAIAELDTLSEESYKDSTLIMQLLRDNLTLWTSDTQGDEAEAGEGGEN

[9] = molecular target: T5, 14-3-3ε (human, UniProt P62258 1-255); assay: fluorescence polarisation
T5 sequence (looked up): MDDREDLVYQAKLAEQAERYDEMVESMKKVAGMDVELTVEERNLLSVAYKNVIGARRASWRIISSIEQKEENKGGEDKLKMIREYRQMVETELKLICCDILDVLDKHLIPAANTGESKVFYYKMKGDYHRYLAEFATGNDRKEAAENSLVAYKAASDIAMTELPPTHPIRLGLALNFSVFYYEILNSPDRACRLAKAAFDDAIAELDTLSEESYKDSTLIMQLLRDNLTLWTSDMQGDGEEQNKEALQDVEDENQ

[10] = molecular target: T6, 14-3-3β (human, UniProt P31946 1-246); assay: fluorescence polarisation
T6 sequence (looked up): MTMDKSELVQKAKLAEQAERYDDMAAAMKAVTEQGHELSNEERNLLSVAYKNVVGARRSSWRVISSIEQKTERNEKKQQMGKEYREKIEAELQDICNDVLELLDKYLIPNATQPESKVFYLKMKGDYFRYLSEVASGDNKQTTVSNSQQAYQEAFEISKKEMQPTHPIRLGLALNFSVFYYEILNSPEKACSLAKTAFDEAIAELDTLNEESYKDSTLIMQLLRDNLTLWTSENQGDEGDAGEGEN

## C=CC(C)(C)OC[C@H]1O[C@H](O[C@@H]2C3=C([C@H](C)CNC(C)=O)C[C@H](O)[C@]3(C)/C=C3/[C@@H](COC)CC[C@H]3[C@@H](C)[C@H]2O)[C@H](O)[C@@H](O)[C@@H]1O [FC-NAc]
[1]
  affinity for the apo 14-3-3: higher affinity for the apo 14-3-3

B1: 13-mer Amot-p130 peptide (for crystallography) (peptide)
peptide: GHVRSL[pS]ERLMQM
modifications: not fully specified (C-terminus)
[2]
  binding result: binds

B2: 20-mer Amot-p130 peptide (for crystallography) (peptide)
peptide: GHVRSL[pS]ERLMQMSLATSGV
modifications: not fully specified (C-terminus)
[3]
  binding result: binds

## B3
[4]
  fold stabilisation with 1 mM fragment 09 or 22 against the DMSO control: 2 fold
[5]
  fold stabilisation with 1 mM fragment 09 or 22 against the DMSO control: 2 fold

B4: TAMRA-labelled 13-mer Amot-p130 peptide (peptide)
peptide: {TAMRA}-GHVRSL[pS]ERLMQM
modifications: also: phosphoserine at 175 (S5 or S7)
[6]
  binding result: binds

## B5
[7]
  binding result: binds
[8]
  binding result: binds
[9]
  binding result: binds
[10]
  binding result: binds
